The target in one assay is FGF2 (UniProt P09038 143-288). The assay can be described thus: ELISA.
A further assay deals with T1, VEGF (UniProt P15692 27-191).
T1 chain: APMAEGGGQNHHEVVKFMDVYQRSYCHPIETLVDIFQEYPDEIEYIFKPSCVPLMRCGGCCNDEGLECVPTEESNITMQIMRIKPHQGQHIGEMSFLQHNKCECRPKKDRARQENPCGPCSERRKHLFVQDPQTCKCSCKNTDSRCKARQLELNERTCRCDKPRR
The assay is described as follows: ELISA.

Chain of FGF2 (P09038 143-288): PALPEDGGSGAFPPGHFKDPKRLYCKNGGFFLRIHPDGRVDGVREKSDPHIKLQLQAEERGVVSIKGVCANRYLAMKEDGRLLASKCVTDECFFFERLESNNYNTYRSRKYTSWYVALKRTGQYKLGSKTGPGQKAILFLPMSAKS

B1: HuGAL-F2 (antibody, V domains shown)
VH: EVQLVQSGAEVKKPGSSVKVSCKASGYTFTNYVINWVRQAPGQGLEWIGYNDPYNDVSKYNEKFKGRATITSDKSTSTAYMELSSLRSEDTAVYYCAKEGGGKYVYAMDSWGQGTTVTVSS
VL: DIQMTQSPSSLSASVGDRVTITCKASQSVSSDVGWYQQKPGKAPKLLIYSGSNRYSGVPSRFSGSGSGTDFTLTISSLQPEDFATYYCQQDYYSPWTFGQGTKVEIK
Broadly, the EC50 is the concentration at which the effect is half-maximal. A low value points to greater potency. Molecule B1 displayed a 50% effective concentration (EC50) with FGF2 of 0.1 nM.

B2: X-Ava/F2 (bispecific antibody)
light 1: DIQMTQSPSSLSASVGDRVTITCKASQSVSSDVGWYQQKPGKAPKLLIYSGSNRYSGVPSRFSGSGSGTDFTLTISSLQPEDFATYYCQQDYYSPWTFGQGTKVEIKRTVAAPSVFIFPPSDEQLKSGTASVVCLLNNFYPREAKVQWKVDNALQSGNSQESVTEQDSKDSTYSLSSTLTLSKADYEKHKVYACEVTHQGLSSPVTKSFNRGEC
heavy 1: not shown
light 2: DIQMTQSPSSLSASVGDRVTITCSASQDISNYLNWYQQKPGKAPKVLIYFTSSLHSGVPSRFSGSGSGTDFTLTISSLQPEDFATYYCQQYSTVPWTFGQGTKVEIKSSASTKGPSVFPLAPSSKSTSGGTAALGCLVKDYFPEPVTVSWNSGALTSGVHTFPAVLQSSGLYSLSSVVTVPSSSLGTQTYICNVNHKPSNTKVDKRVEPKSC
heavy 2: not shown
For the molecule B2, the results for the EC50 with VEGF and with FGF2 were 1.43 nM and 0.35 nM, respectively.

(Values after US20150110788A1 (published 2015).)
